Biological target: GPI-anchored urokinase receptor (uPAR) on U937 cells (human (endogenous in U937)) (UniProt Q03405)
Experiment: radioligand binding

Sequence of UniProt Q03405 (Q03405 23-305): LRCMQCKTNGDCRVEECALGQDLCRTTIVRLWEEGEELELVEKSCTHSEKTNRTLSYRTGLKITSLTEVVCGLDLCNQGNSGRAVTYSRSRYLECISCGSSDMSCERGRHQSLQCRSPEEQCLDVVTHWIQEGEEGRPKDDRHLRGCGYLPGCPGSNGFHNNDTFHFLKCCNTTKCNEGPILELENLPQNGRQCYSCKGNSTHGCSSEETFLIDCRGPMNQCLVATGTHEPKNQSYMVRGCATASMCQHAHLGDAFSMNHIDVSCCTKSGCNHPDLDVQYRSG

Substance	IC50
histidine-tagged pro-uPA with Ser138 and Ser303 replaced by Glu (enzyme)	0.4 nM
histidine-tagged pro-uPA with Ser138 replaced by Glu (enzyme)	0.4 nM
histidine-tagged wild-type pro-uPA (enzyme)	0.4 nM
human urinary uPA (enzyme)	0.4 nM
